Numbering of substitutions follows the chain as printed.
T1: Human BCMA (human, UniProt Q02223 1-54, limits assumed)
T1 construct: Soluble analyte in SPR; construct not described; also called huBCMA; B-cell maturation antigen
T1 sequence (looked up): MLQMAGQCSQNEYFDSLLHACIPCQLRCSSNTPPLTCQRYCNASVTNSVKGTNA

B1: A02_Rd4_6nM_C01 (antibody, V domains shown)
VH: EVQLLESGGGLVQPGGSLRLSCAASGFTFSSYAMNWVRQAPGKGLEWVSAITASGGSTYYADSVKGRFTISRDNSKNTLYLQMNSLRAEDTAVYYCARYWPMSLWGQGTLVTVSS
VL: EIVLTQSPGTLSLSPGERATLSCRASQSVSAYYLAWYQQKPGQAPRLLMYDASIRATGIPDRFSGSGSGTDFTLTISRLEPEDFAVYYCQQYERWPLTFGQGTKVEIK
B2: COMBO_Rd4_0.6nM_C29 (antibody, V domains shown)
VH: B1 VH with A33P, N35S, T52G, A53G, T58L, Y59P, S103D, L104I
VL: B1 VL with A31S, Y32S, E93Q, R94S
notes: Tested as IgG
B3: L3.PY/P6E01 (antibody, V domains shown)
VH: EVQLLESGGGLVQPGGSLRLSCAASGFTFGSYAMTWVRQAPGKGLEWVSAISGSGGNTFYADSVKGRFTISRDNSKNTLYLQMNSLRAEDTAVYYCARVSPIASGMDYWGQGTLVTVSS
VL: EIVLTQSPGTLSLSPGERATLSCRASQSVSSSYLAWYQQKPGQAPRLLIYGASSRATGIPDRFSGSGSGTDFTLTISRLEPEDFAVYYCQHYPYPPSFTFGQGTKVEIK
notes: IgG
B4: L1.LGF/L3.NY/P6E01 (antibody, V domains shown)
VH: B3 VH
VL: B3 VL with V29L, S30G, S32F, P93N
notes: IgG
B5: L3.KW/P6E01 (antibody, V domains shown)
VH: B3 VH
VL: B3 VL with Q90K, P93G, Y94W
notes: IgG
B6: L1.LGF/L3.KW/H3.AP (antibody, V domains shown)
VH: B3 VH with S104A, G105P
VL: B3 VL with V29L, S30G, S32F, Q90K, P93G, Y94W
notes: IgG
B7: L1.GDF/L3.NY/P6E01 (antibody, V domains shown)
VH: B3 VH
VL: B3 VL with S30G, S31D, S32F, P93N
notes: IgG
B8: L1.GDF/L3.NY/H3.AQ (antibody, V domains shown)
VH: B3 VH with S104A, G105Q
VL: B3 VL with S30G, S31D, S32F, P93N
notes: IgG
B9: L1.LGF/L3.PY/H3.AP (antibody, V domains shown)
VH: B3 VH with S104A, G105P
VL: B3 VL with V29L, S30G, S32F
notes: IgG
B10: L1.LGF/L3.NY/H3.AL (antibody, V domains shown)
VH: B3 VH with S104A, G105L
VL: B3 VL with V29L, S30G, S32F, P93N
notes: IgG
B11: L1.LGF/L3.KW/P6E01 (antibody, V domains shown)
VH: B3 VH
VL: B3 VL with V29L, S30G, S32F, Q90K, P93G, Y94W
notes: IgG
B12: L1.LGF/L3.KW/H3.AL (antibody, V domains shown)
VH: B3 VH with S104A, G105L
VL: B3 VL with V29L, S30G, S32F, Q90K, P93G, Y94W
notes: IgG
B13: L1.LGF/L3.NY/H3.AP (antibody, V domains shown)
VH: B3 VH with S104A, G105P
VL: B3 VL with V29L, S30G, S32F, P93N
notes: IgG
B14: L1.GDF/L3.NY/H3.AL (antibody, V domains shown)
VH: B3 VH with S104A, G105L
VL: B3 VL with S30G, S31D, S32F, P93N
notes: IgG
B15: L1.LGF/L3.KW/H3.AQ (antibody, V domains shown)
VH: B3 VH with S104A, G105Q
VL: B3 VL with V29L, S30G, S32F, Q90K, P93G, Y94W
notes: IgG
B16: L3.NY/P6E01 (antibody, V domains shown)
VH: B3 VH
VL: B3 VL with P93N
notes: IgG
B17: L1.GDF/L3.PY/H3.AQ (antibody, V domains shown)
VH: B3 VH with S104A, G105Q
VL: B3 VL with S30G, S31D, S32F
notes: IgG
B18: L1.LGF/L3.PY/H3.AQ (antibody, V domains shown)
VH: B3 VH with S104A, G105Q
VL: B3 VL with V29L, S30G, S32F
notes: IgG
B19: L1.LGF/L3.NY/H3.AQ (antibody, V domains shown)
VH: B3 VH with S104A, G105Q
VL: B3 VL with V29L, S30G, S32F, P93N
notes: IgG
B20: L1.GDF/L3.NY/H3.AP (antibody, V domains shown)
VH: B3 VH with S104A, G105P
VL: B3 VL with S30G, S31D, S32F, P93N
notes: IgG

target: BCMA (analyte of Table 4A); test: SPR (Bio-Rad ProteOn XPR36), IgG amine-coupled, BCMA as analyte, kinetic titration; species of BCMA and temperature not stated for Table 4A
Procedure: (§1) All experiments were performed on a Bio-Rad Proteon XPR36 surface Plasmon resonance biosensor (Bio-Rad, Hercules, Calif.). […] The analysis temperature for the immobilization was 25° C. and the running buffer was HBS-T+(10 mM HEPES, 150 mM NaCl, 0.05% Tween-20, pH 7.4). Channels were activated in the analyte (horizontal) direction by injecting a mixture of 1 mM ECD and 0.25 mM NHS for 3 minutes at a flow rate of 30 μL/min. IgGs were immobilized on the activated spots by injecting them in the ligand (vertical) direction at 20 μg/mL in 10 mM Acetate pH 4.5 buffer for 1.5 minutes at […]. The activated surfaces were blocked by injecting 1M ethanolamine, pH 8.5 in the analyte direction for 3 minutes at 30 μL/min.
(§2) The analysis temperature for the BCMA binding analysis was 37° C. or 25° C. in a running buffer of HBS-T+, supplemented with 1 mg/mL BSA. A kinetic titration method was employed for the interaction analysis as described in Abdiche, et al. Human BCMA (huBCMA) or cynomolgus monkey BCMA (cyBCMA) analyte was injected in the analyte direction using a series of injections from low to high concentration. The concentrations used were 0.08 nM, 0.4 nM, 2 nM, 10 nM and 50 nM (a 5-membered series, with a 5-fold dilution factor and top concentration of 50 nM). The association time for a given analyte dilution was two minutes. Immediately after the 50 nM BCMA injection, dissociation was monitored for 2 hours.
(§3) The sensorgrams were double-referenced and fit to a 1:1 Langmuir with mass transport kinetic titration model in BIAevaluation Software version 4.1.1 (GE Lifesciences, Piscataway, N.J.).

Chain of BCMA (analyte of Table 4A) (Q02223 whole entry, the tested form may be a part): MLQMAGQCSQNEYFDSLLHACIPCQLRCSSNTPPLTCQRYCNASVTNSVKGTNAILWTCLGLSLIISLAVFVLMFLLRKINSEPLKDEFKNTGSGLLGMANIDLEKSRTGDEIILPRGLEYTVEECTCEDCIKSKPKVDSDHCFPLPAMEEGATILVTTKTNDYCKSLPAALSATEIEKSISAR

Row | Binder | Kd [nM] | koff [s⁻¹] | kon [M⁻¹ s⁻¹] | t1/2 [min]
1 | B1 | 0.024 | 2.8e-05 | 1.2e+06 | 411
2 | B2 | 0.021 | 0.00014 | 6.6e+06 | 83

target: T1, Human BCMA; test: SPR, IgG immobilised, 37 C
How it was run: (§4)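 Kinetic titration: huBCMA/cyBCMA 0.08–50 nM (5-fold steps), 2 min association per step, 2 h dissociation after top dose; HBS-T+ + 1 mg/mL BSA, 25 or 37° C; double-referenced, fit 1:1 Langmuir with mass transport.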

Row | Binder | Kd [nM] | T ½ [min] | koff [s⁻¹] | kon [M⁻¹ s⁻¹]
3 | B3 | 0.74 | 5.91 | 0.00196 | 2.65e+06

target: T2, cynomolgus monkey BCMA (cynomolgus monkey, UniProt A0A2K5UD97 1-53); test: SPR, IgG immobilised, 37 C
T2 construct: Soluble analyte in SPR; construct not described; also called cyBCMA; Cyno BCMA
How it was run: as §4

T2 sequence (A0A2K5UD97 entry or part of it): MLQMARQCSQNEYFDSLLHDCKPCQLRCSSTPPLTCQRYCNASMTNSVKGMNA

Row | Binder | Kd [nM] | T ½ [min] | koff [s⁻¹] | kon [M⁻¹ s⁻¹]
4 | B3 | 5.96 | 0.88 | 0.0131 | 2.2e+06

target: T1, Human BCMA; test: SPR, IgG immobilised, 25 C
Procedure: as §1, §2, §3

Row | Binder | Kd [nM] | T ½ [min] | koff [s⁻¹] | kon [M⁻¹ s⁻¹]
5 | B3 | 0.32 | 50.7 | 0.000228 | 712000
6 | B4 | 3.32 | 2.63 | 0.0044 | 1.33e+06
7 | B5 | 0.43 | 36.7 | 0.000315 | 740000
8 | B6 | 2.44 | 5.1 | 0.00227 | 928000
9 | B7 | 3.7 | 1.95 | 0.00592 | 1.6e+06
10 | B8 | 0.73 | 16 | 0.000722 | 984000
11 | B9 | 2.12 | 11.9 | 0.000969 | 457000
12 | B10 | 1.27 | 11.9 | 0.00097 | 763000
13 | B11 | 9.08 | 1.53 | 0.00755 | 831000
14 | B12 | 2.87 | 9.4 | 0.00123 | 428000
15 | B13 | 0.57 | 21.7 | 0.000533 | 936000
16 | B14 | 4.44 | 2.87 | 0.00403 | 907000
17 | B15 | 1.82 | 12.1 | 0.000956 | 524000
18 | B16 | 0.44 | 30.1 | 0.000384 | 876000
19 | B17 | 9.49 | 0.86 | 0.0135 | 1.42e+06
20 | B18 | 0.95 | 13 | 0.000886 | 931000
21 | B19 | 0.45 | 38.6 | 0.000299 | 666000
22 | B20 | 1 | 8.21 | 0.00141 | 1.41e+06

target: T2, cynomolgus monkey BCMA; test: SPR, IgG immobilised, 25 C
Procedure: as §1, §2, §3

Row | Binder | Kd [nM] | T ½ [min] | koff [s⁻¹] | kon [M⁻¹ s⁻¹]
23 | B3 | 3.4 | 3.9 | 0.00293 | 855000
24 | B4 | 11.4 | 1.1 | 0.0105 | 920000
25 | B5 | 3.4 | 4.5 | 0.00257 | 763000
26 | B6 | 27.8 | 0.7 | 0.0154 | 554000
27 | B7 | 6.4 | 1.5 | 0.00767 | 1.2e+06
28 | B8 | 1.2 | 8.5 | 0.00136 | 1.18e+06
29 | B9 | 35.8 | 0.9 | 0.013 | 364000
30 | B10 | 23.2 | 0.8 | 0.0148 | 635000
31 | B11 | 42.8 | 0.6 | 0.0195 | 455000
32 | B12 | 41.8 | 1 | 0.0121 | 290000
33 | B13 | 6.7 | 2.1 | 0.00557 | 830000
34 | B14 | 24.3 | 0.5 | 0.0219 | 900000
35 | B15 | 6.7 | 3.3 | 0.00355 | 527000
36 | B16 | 2.8 | 4 | 0.00287 | 1.01e+06
37 | B17 | 10.7 | 0.7 | 0.0166 | 1.55e+06
38 | B18 | 4.8 | 2.4 | 0.00477 | 1e+06
39 | B19 | 2 | 7.8 | 0.00148 | 751000
40 | B20 | 5.2 | 1.6 | 0.00702 | 1.36e+06

From patent US20160297884A1 (Pfizer, published 2016)
